Test results published in patent US20180155451A1 (published 2018).

T1: FcγRIIa R (human, UniProt P12318 34-217)
T1 construct: extracellular domain; also called FcgRIIa R; FcγRIIa type R
T1 sequence (looked up): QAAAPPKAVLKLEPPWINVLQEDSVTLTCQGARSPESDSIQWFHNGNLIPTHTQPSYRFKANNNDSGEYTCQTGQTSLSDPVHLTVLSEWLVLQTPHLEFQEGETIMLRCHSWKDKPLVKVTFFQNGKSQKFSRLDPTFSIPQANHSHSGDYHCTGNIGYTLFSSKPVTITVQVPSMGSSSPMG

T2: FcγRIIb (human, UniProt P31994 43-217)
T2 construct: extracellular domain; also called FcgRIIb
T2 sequence (looked up): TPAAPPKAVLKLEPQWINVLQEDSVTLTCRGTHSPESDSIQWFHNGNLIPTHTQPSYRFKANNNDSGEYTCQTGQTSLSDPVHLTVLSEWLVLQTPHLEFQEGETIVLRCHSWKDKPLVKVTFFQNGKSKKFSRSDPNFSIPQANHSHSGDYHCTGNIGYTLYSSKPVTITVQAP


Legend:
FcγRIIa R [1] = biological target: T1, FcγRIIa R; assay: SPR (Biacore), captured antibody, FcγR analyte; binding relative to GpH7-A5/GpH7-B3/GpL16-k0 = 100
FcγRIIb = biological target: T2, FcγRIIb; assay: as above
FcγRIIa R [2] = biological target: T1, FcγRIIa R; assay: He/Con_2aR divided by He/Con_2b (FcγRIIa R over FcγRIIb); SPR (Biacore)

| Binder | He/Con_2aR (IIaR binding) (FcγRIIa R [1]) [control=100] | He/Con_2b (IIb binding) (FcγRIIb) [control=100] | IIaR/IIb (He_2aR/2b) (FcγRIIa R [2]) [ratio] |
| --- | --- | --- | --- |
| GpH7-A5/GpH7-B3 variant P329_01G/GpL16-k0 (antibody, human IgG1, kappa, He Ab; IgG1; mutation in one H chain only) heavy 1: not shown heavy 2: not shown light: DIVMTQSPLSLPVTPGEPASISCQASESLVHSNRNTYLHWYLQKPGQSPQLLIYKVSNRFSGVPDRFSGSGSGTDFTLKISRVEAEDVGVYYCSQNTHVPPTFGQGTKVEIERTVAAPSVFIFPPSDEQLKSGTASVVCLLNNFYPREAKVQWKVDNALQSGNSQESVTEQDSKDSTYSLSSTLTLSKADYEKHKVYACEVTHQGLSSPVTKSFNRGEC | 55 | 41.7 | 1.32 |
| GpH7-A5/GpH7-B3 variant A330_10E/GpL16-k0 (antibody, human IgG1, kappa, He Ab; IgG1; mutation in one H chain only) heavy 1: not shown heavy 2: not shown light: DIVMTQSPLSLPVTPGEPASISCQASESLVHSNRNTYLHWYLQKPGQSPQLLIYKVSNRFSGVPDRFSGSGSGTDFTLKISRVEAEDVGVYYCSQNTHVPPTFGQGTKVEIERTVAAPSVFIFPPSDEQLKSGTASVVCLLNNFYPREAKVQWKVDNALQSGNSQESVTEQDSKDSTYSLSSTLTLSKADYEKHKVYACEVTHQGLSSPVTKSFNRGEC | 86.6 | 70.1 | 1.23 |
| GpH7-A5/GpH7-B3 variant N325_12R/GpL16-k0 (antibody, human IgG1, kappa, He Ab; IgG1; mutation in one H chain only) heavy 1: not shown heavy 2: not shown light: DIVMTQSPLSLPVTPGEPASISCQASESLVHSNRNTYLHWYLQKPGQSPQLLIYKVSNRFSGVPDRFSGSGSGTDFTLKISRVEAEDVGVYYCSQNTHVPPTFGQGTKVEIERTVAAPSVFIFPPSDEQLKSGTASVVCLLNNFYPREAKVQWKVDNALQSGNSQESVTEQDSKDSTYSLSSTLTLSKADYEKHKVYACEVTHQGLSSPVTKSFNRGEC | 26.1 | 19.1 | 1.37 |
| GpH7-A5/GpH7-B3 variant A330_13S/GpL16-k0 (antibody, human IgG1, kappa, He Ab; IgG1; mutation in one H chain only) heavy 1: not shown heavy 2: not shown light: DIVMTQSPLSLPVTPGEPASISCQASESLVHSNRNTYLHWYLQKPGQSPQLLIYKVSNRFSGVPDRFSGSGSGTDFTLKISRVEAEDVGVYYCSQNTHVPPTFGQGTKVEIERTVAAPSVFIFPPSDEQLKSGTASVVCLLNNFYPREAKVQWKVDNALQSGNSQESVTEQDSKDSTYSLSSTLTLSKADYEKHKVYACEVTHQGLSSPVTKSFNRGEC | 60.8 | 41.3 | 1.47 |
| GpH7-A5/GpH7-B3 variant N325_11K/GpL16-k0 (antibody, human IgG1, kappa, He Ab; IgG1; mutation in one H chain only) heavy 1: not shown heavy 2: not shown light: DIVMTQSPLSLPVTPGEPASISCQASESLVHSNRNTYLHWYLQKPGQSPQLLIYKVSNRFSGVPDRFSGSGSGTDFTLKISRVEAEDVGVYYCSQNTHVPPTFGQGTKVEIERTVAAPSVFIFPPSDEQLKSGTASVVCLLNNFYPREAKVQWKVDNALQSGNSQESVTEQDSKDSTYSLSSTLTLSKADYEKHKVYACEVTHQGLSSPVTKSFNRGEC | 16.2 | 10.4 | 1.57 |
| GpH7-A5/GpH7-B3 variant A330_18N/GpL16-k0 (antibody, human IgG1, kappa, He Ab; IgG1; mutation in one H chain only) heavy 1: not shown heavy 2: not shown light: DIVMTQSPLSLPVTPGEPASISCQASESLVHSNRNTYLHWYLQKPGQSPQLLIYKVSNRFSGVPDRFSGSGSGTDFTLKISRVEAEDVGVYYCSQNTHVPPTFGQGTKVEIERTVAAPSVFIFPPSDEQLKSGTASVVCLLNNFYPREAKVQWKVDNALQSGNSQESVTEQDSKDSTYSLSSTLTLSKADYEKHKVYACEVTHQGLSSPVTKSFNRGEC | 81.1 | 63.7 | 1.27 |
| GpH7-A5/GpH7-B3 variant A330_14T/GpL16-k0 (antibody, human IgG1, kappa, He Ab; IgG1; mutation in one H chain only) heavy 1: not shown heavy 2: not shown light: DIVMTQSPLSLPVTPGEPASISCQASESLVHSNRNTYLHWYLQKPGQSPQLLIYKVSNRFSGVPDRFSGSGSGTDFTLKISRVEAEDVGVYYCSQNTHVPPTFGQGTKVEIERTVAAPSVFIFPPSDEQLKSGTASVVCLLNNFYPREAKVQWKVDNALQSGNSQESVTEQDSKDSTYSLSSTLTLSKADYEKHKVYACEVTHQGLSSPVTKSFNRGEC | 95.5 | 77.9 | 1.23 |
| GpH7-A5/GpH7-B3 variant A330_09D/GpL16-k0 (antibody, human IgG1, kappa, He Ab; IgG1; mutation in one H chain only) heavy 1: not shown heavy 2: not shown light: DIVMTQSPLSLPVTPGEPASISCQASESLVHSNRNTYLHWYLQKPGQSPQLLIYKVSNRFSGVPDRFSGSGSGTDFTLKISRVEAEDVGVYYCSQNTHVPPTFGQGTKVEIERTVAAPSVFIFPPSDEQLKSGTASVVCLLNNFYPREAKVQWKVDNALQSGNSQESVTEQDSKDSTYSLSSTLTLSKADYEKHKVYACEVTHQGLSSPVTKSFNRGEC | 70.9 | 55.6 | 1.27 |
